{"source": "paper PMC6877644", "about": "“JASPer controls interphase histone H3S10 phosphorylation by chromosomal kinase JIL-1 in Drosophila”", "binders": {"B1": {"name": "40 bp dsDNA (end of 601 positioning sequence) (dsDNA)", "DNA 1": "CCTGGAGAATCCCGGTGCCGAGGCCGCTCAATTGGTCGTA", "DNA 2": "TACGACCAATTGAGCGGCCTCGGCACCGGGATTCTCCAGG"}}, "key": {"JIL-1": {"biological_target": "T1, JIL-1 (Drosophila melanogaster, UniProt Q9V3I5 1-1207)", "T1 sequence": "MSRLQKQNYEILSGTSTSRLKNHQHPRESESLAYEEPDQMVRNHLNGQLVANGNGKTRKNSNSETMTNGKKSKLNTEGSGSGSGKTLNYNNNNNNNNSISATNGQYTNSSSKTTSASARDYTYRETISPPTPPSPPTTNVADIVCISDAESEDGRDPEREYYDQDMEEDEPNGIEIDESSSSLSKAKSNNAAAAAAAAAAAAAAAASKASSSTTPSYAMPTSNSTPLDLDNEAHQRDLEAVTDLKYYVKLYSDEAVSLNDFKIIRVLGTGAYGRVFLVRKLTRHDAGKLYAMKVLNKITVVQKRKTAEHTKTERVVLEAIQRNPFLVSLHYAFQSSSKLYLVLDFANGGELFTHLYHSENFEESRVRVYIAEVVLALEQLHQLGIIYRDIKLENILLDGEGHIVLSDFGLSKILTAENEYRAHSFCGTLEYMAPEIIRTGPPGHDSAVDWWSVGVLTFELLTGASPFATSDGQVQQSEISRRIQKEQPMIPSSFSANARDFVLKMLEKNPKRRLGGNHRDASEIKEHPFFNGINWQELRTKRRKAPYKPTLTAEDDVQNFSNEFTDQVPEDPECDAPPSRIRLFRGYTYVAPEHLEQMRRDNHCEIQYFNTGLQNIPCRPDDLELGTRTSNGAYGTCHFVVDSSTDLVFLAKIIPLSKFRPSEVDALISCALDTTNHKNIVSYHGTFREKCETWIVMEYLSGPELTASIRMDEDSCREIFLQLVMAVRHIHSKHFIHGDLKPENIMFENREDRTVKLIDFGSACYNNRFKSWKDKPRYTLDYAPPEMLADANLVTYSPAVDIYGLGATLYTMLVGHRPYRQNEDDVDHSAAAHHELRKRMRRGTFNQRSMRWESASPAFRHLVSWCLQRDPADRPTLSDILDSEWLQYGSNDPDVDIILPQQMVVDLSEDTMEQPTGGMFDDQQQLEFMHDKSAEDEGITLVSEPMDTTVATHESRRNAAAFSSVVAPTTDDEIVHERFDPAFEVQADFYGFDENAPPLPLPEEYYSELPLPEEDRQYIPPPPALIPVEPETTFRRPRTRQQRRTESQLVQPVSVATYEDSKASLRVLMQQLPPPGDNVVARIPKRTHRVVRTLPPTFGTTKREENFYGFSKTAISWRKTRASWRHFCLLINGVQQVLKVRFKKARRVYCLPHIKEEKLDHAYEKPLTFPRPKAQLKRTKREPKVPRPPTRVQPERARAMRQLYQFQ", "test": "EMSA; 70 nM DNA; DNA EMSA: 50 mM HEPES pH 7.6, 50 mM NaCl, 10% glycerol, 2 mM MgCl2, 10% BSA, RT 10 min; RNA EMSA: 25 mM HEPES pH 7.6, 100 mM KCl, 3 mM MgCl2, 1 mM DTT, 5% glycerol, 100 ug/mL yeast tRNA, 20 C 15 min; nucleosome pull-down: 20 mM Tris/Cl pH 7.5, 50 mM NaCl, 5 mM EDTA, 0.1% Tween 20, 4 C 4 h", "settings": "protein: recombinant; tags: N-terminal FLAG; label: Cy5; blunt"}, "JASPer": {"biological_target": "T2, JASPer (Drosophila melanogaster, UniProt Q9VAA9 1-475)", "T2 sequence": "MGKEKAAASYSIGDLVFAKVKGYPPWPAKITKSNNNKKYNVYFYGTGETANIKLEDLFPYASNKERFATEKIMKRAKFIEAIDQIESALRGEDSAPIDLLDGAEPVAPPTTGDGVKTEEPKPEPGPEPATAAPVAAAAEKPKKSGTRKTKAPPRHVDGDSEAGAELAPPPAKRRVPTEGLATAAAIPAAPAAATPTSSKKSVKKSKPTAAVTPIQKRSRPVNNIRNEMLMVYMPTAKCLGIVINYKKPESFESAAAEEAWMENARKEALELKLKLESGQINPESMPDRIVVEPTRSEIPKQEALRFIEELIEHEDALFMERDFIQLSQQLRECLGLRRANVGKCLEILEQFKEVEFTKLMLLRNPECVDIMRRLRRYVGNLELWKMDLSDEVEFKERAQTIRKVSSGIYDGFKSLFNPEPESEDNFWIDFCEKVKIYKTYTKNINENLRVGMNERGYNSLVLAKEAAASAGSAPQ", "test": "EMSA; 70 nM DNA; 9-fold molar excess of JASPer shifts all DNA; at least three retarded bands; DNA EMSA: 50 mM HEPES pH 7.6, 50 mM NaCl, 10% glycerol, 2 mM MgCl2, 10% BSA, RT 10 min; RNA EMSA: 25 mM HEPES pH 7.6, 100 mM KCl, 3 mM MgCl2, 1 mM DTT, 5% glycerol, 100 ug/mL yeast tRNA, 20 C 15 min; nucleosome pull-down: 20 mM Tris/Cl pH 7.5, 50 mM NaCl, 5 mM EDTA, 0.1% Tween 20, 4 C 4 h", "settings": "protein: recombinant; tags: C-terminal FLAG; label: Cy5; blunt"}}}
{"binder": "B1", "values": [{"measurement": "binding result", "setting": "JIL-1", "value": "no binding"}, {"measurement": "binding result", "setting": "JASPer", "value": "binds"}]}
